Measured values from a protein production outcome set (Wang et al. 2014).

Assay: label from the status in PepcDB records

| Sequence | protein production |
| --- | --- |
| MPTVKLTKNITIMTGSPNTLIYDNRVVIDLGGKNSSVDINAEVQLATHGHADHIAGLLKKDAKIRYLPKEDYWSLTLMGRRAMIYGCSSKDSDIFTFDYVKENIESIDIEVRTSEIEVIKLPGHTPGHSGYIVDNVLYAGDAFFGEKVLEGFSVPFYTDFWTALESLNKVKELAKSVNNIVISHGPVYTNKNKMVSILESNIIYAQNLIGKILDMLSNNELTVEEIVVKLKQDLTPSNVLLNSVVVRSILFGLENIEYNVSQKGLVFRRRVH | failed |
| MNVRKFPFAMRAGVAGMLALAALLAGCGSLSGSEMSRRTDADIEVARQRQADEKAELTSPGTYLSLIRRMQEQGMYYASLAHIDAYVQRFGRTPDVLLLRADALRETDQPAAAEADYRAVVEATSALGAGTQGALLNANAWRGLGITAGRQGRFAEAVRRLQLAARGNPTDASTESDLGYALMRAGEVEQARVPLMQAAQLDAANPKIAGNLAIWLDVNDRKEAAAALTAHARLSEAARKAIDEDAARVRSAWRDRRVARDTAPQPVQRAVVANPALMPAAAAPRSSAPLAFQRGRLLDNLEAAQ | failed |
| MSLAPRPRILICEDDPDIARLLNLMLEKGGFDSDMVHSAAQALEQVARRPYAAMTVDLNLPDQDGVSLIRALRRDSRTRDLAIVVVSANAREGELEFNSQPLAVSTWLEKPIDENLLILSLHRAIDNMAEGKEGHHHHHH | not failed |
| MKVAVLDFGKTNSKLFVFGQDGGILDERRTQPKWTHQDGFSVLDEAALHDWALGAVTEAVENHGVEGVMVSGHGCTFALVDDAALTHPILDYEQEPPAEIAARIDHRIPDFAETFSPRLPLGFNYGRHMLWVQEVDPDAFAAAKSILGYPQYWSWRLGGRPVSEVSYLGCHSHLWAPRSQDFSSLVDAEGWRGQMPAFARAGAVIGERRLGSSSRPIAIHNGVHDSNAALHAYRRQELGPLTVVSTGTWVVVLNPGCPLDVLDRDRDMLVNVDVDGGPVPTIRFMGGREFAAISAGWQGAIPPGAVQQAIDAGIMALPSFAPGGPMPDRPGRLVGRTPYAAERAAAALLYVALMVDLCLDLIQSQDTVIVDGGLNAGGLLAGLLAELRPGQAFLQGATLEGSATGAAALAFESVGRDFVAEAPEPVHAARFAGLAGYRDAWRDRVGGQGTAIKAAGGARLEHHHHHH | failed |
| MTNAMELYQMLPKTNCKKCGKTSCMAFAVALMARELTPEDCPPLKEEPKYKESYEKLSEIFKPSEGATETGLIVHEDLCFGCGNCVVACPPNVANDPYGVGSGKAPTNPGRLVLTVEDGVVKAQNLGECRRFGKNKILCNGCIVTCPVEAIEFV | failed |
| MKPQVYHVDAFTSQPFRGNSAGVVFPADNLSEAQMQLIARELGHSETAFLLHSDDSDVRIRYFTPTVEVPICGHATVAAHYVRAKVLGLGNCTIWQTSLAGKHRVTIEKHNDDYRISLEQGTPGFEPPLEGETRAAIINALHLTEDDILPGLPIQVATTGHSKVMIPLKPEVDIDALSPDLNALTAISKKIGCNGFFPFQIRPGKNETDGRMFSPAIGIVEDPVTGNANGPMGAWLVHHNVLPHDGNVLRVKGHQGRALGRDGMIEVTVTIRDNQPEKVTISGTAVILFHAEWAIEL | not failed |
| MESSKKMDSPGALQTNPPLKLHTDRSAGTPVFVPEQGGYKEKFVKTVEDKYKCEKCHLVLCSPKQTECGHRFCESCMAALLSSSSPKCTACQESIVKDKVFKDNCCKREILALQIYCRNESRGCAEQLTLGHLLVHLKNDCHFEELPCVRPDCKEKVLRKDLRDHVEKACKYREATCSHCKSQVPMIALQVSLLQNESVEKNKSIQSLHNQICSFEIEIERQKEMLRNNESKILHLQRVIDSQAEKLKELDKEIRPFRQNWEEADSMKSSVESLQNRVTELESVDKSAGQVARNTGLLESQLSRHDQMLSVHDIRLADMDLRFQVLETASYNGVLIWKIRDYNRRKQEAVMGKTLSLYSQPFYTGYFGYKMCARVYLNGDGMGKGTHLSLFFVIMRGEYDALLPWPFKQKVTLMLMDQGSSRRHLGDAFKPDPNSSSFKKPTGEMNIASGCPVFVAQTVLENGTYIKDDTIFIKVIVDTSDLPDP | not failed |
| METNKYLELIKQELANMPDFVKEYNLGTSHSLTTTYQYLTEIRRFFDWLRQNNIASVSSNKEIEVTTLENLQRNDVMLYIHHLKHTKNQQGRLNSPTTINRSINALRSLYKFLTITSDNNHGEPYFDRNVMLKINSLNDTKTLNYRAHVLESHMYMGDLKYQFLDFIENEYIHKCNKQSLPAFKKNHERDMAIIALILGTGIRVSECVGVNMRNINLKDAMLDVTRKGGQKDSVPIAEWTIPYLKKYREIRADHYHAEKEDIAFFLTRWHGKTKRITTNAVEKMVNKYSAAFGKPLTPHKLRHTLASELYEVTKDQVLVAQQLGQKGTTATDLYTHVDQKKQKAALNKINRYKSSD | failed |
| MRAAFLIGILAAMGALTQGGSISETVGAGLIDGATITSLAAVAGLLTATGFMAFGIYSGYPVPAAFATTGAMVGVGLSLGGQPVFDTYRRIATFWLLVPPVSGSLAYLTATVLRRDDIPETVGVPLLAGVVGGIVANVQLSIIPSPAGTDQGSLAGFAAMVAGTDIAAVATTLLVAAGSFYYIRRQTQASVDKGIKTFLVVLGSVVAFSSGGSQVGLATGPLENLYRAELGLPGFVLLALGAVGILGGAWMGAPRLLQATSREYAQLGVRRSIAALVPGFIIAQAAIALGIPISFNNIIISGVIGGGLAGGSAGVSRRKIGVTVGFWLITLVTSVVIGFGVYQVLEAALGSQV | failed |
| MSKHVLRLALVGNPNSGKTALFNRLTGSRQKVANYPGVTVERKEGYFRASSGREFVILDLPGAYSFQPASFDEAITRDFCRGFYPGEAPPDVLVCVVDATNLRLHLRFVLELIELGRPVVVALNMVDAAQRRGIRIDRVILEQLLGVPVVETVAVRRHGARALLEQLDTGVIPLPAPVPALAAGDQYHAQVRHILDAAVKMPSRTSRVDDALDRWLLHPVFGLVVLTVVMFLIFQAVYAWAAPLVSLIEGSTTVLGHWVGNRLPDGPLRSLVVDGIITGIGGVLMFLPQILILFAFILALEESGYLPRAAFLLDRLMVLAGLSGRSFIPLLSSFACAVPGIMSTRSIQDPRDRLVTILVAPLMTCSARLPVYTLLIGAFVPRKSLWGPINQQGLVLFGLYMAGIFSALVVSWTVKKWRRGTSEHPLLLELPSYRLPHSRDLLLGLWERAVIFLKRVGGIILALTILLWFLLAFPEPPSGAIGPAIQYSFAGRIGHVIAVFFAPLGFSWQICIALIPGLAAREVAVSSLATVYALSASNEEMAVRALSPLIQDGWSLATALSLLVWYIYAPMCISTLVTIKRETNSWKHMAMTAGYLFALAYLAALATYQVALLLGAG | failed |
| MELAAILFSMFFAMNIGASGAAASMGIAYGSEAVKKKFHALLICAAGVLSGAVIGGGNVVKTISSGIIPERVISLEIVCIIIGSAALSLFIANVLGIPLSTSEVTVGSVVGVGVAYQVLYVKSLLVIVSFWVIVPIVAFAFTFAMAKIMKKTIKRPASGKKAKVLAVILLITGFFEAFSAGMNNVANAVGPLVAAHVLTVGEGTLYGGLFVALGALLLGRRVLETNGKKITRFSKGEGIILSGTGAGLVITSSIFGLPVPLAQVTSSSIIGMGMAKNGGNVFHKQVVKTMLKVWVVSPFLSLSLSYMLVSLLLKGDYYALIVVTSVLLASVGTISLMRAVKKEHSSVHEQGGGI | failed |
| MPMTVVSGRFSTALLPTCFSLSRLHSVKYAAQRRVVFVSRSAHASSASVSVETNSNSNVDFVIEKKDKNRGEKKILACPICYNSLAWISQPNGLIESAASGIQVQCNTCKRSYSGNETHLDLAVASGSKRYSEPMPLSTELFRTPLVSFLYERGWRQNFIWGGFPGPEKEFEMAKAYLKPVLGGNIIDASCGSGMFSRLFTRSDLFSLVIALDYSENMLRQCYELLNKEENFPNKEKLVLVRADIARLPFLSGSVDAVHAGAALHCWPSPSSAVAEISRVLRPGGVFVATTFIYDGPFSFIPFLKNLRQEIMRYSGSHIFLNERELEDICKACGLVNFTRVRNGPFIMLSATKPS | failed |
| TVDWASMKWARPYLNTNSLGANPKQPGDVAKVGDLVRLLRQDDGSLKFSQIPVAQSALVSLDPQNGAIRALVGGFAFEQSNYNRAMQAKRQPGSSFKPFIYSAALDNGYTASSLVNDAPIVFVDEYLDKVWRPKNDTNTFLGPIRLREALYKSRNLVSIRLLQALGVDSTIDYITRFGFAKQDLPRNLSLALGTATLTPMEIATGWATFANGGYKVSPYLIQTIENRDGQTLFVANPPSVPVNDVNTAPNTSTFAVHDSPSVVASPPGSPAQPQAPAVAERIVDGRTTYILNSMLQDVIKRGTGRRALSMNRPDIAGKTGTTNDSKDAWFSGYNADYVTTVWSGFDQPESLGRHEFGGTVSLPIWMDYMSAALKDKPPHQQ | failed |
| MPEGLATAQAKYNGAAGRAFVEGLPALAAGFLERWELRLDGPSMHGWAALVLPVVRRDGTGAVLKLQILDAETEGEPLALRVWDGDGAVRLLDHDPATGTMLLERLDAGRMLSHVADSREAVLVIARLLAHLTATPAPPGVRRLGDIARGMLERTPGTLERIPDPADRRLVADCAAAVREVVDEPGDRLLHWDLHYENVLAADRAPWIAIDPKPLAGDPGFDLLPALDNRYDPGETRWRFDALTDVLGLDRERARAWSLGRVLQNSLWNVEDGDPLETEQMEIGRLLRDL | failed |
| MVEVSQFKDAMAQLASAVHIVTTSGETGQHGFTASAVCSVTDSPPTLLVCINSNARAYEHFVKNRVLMVNTLTAEQSSLSNIFASPLSQEERFSNASWTTLTTGSPMLQDALINFDCEITEIKHVGTHDILICKIVDIHQSNAKNALVYRNRVYHSV | not failed |
| MKYYDEVPIIRSVAAMLVVAIHTVNSIALSRGTFTSDGLGYVNQIARLGTPIFAVISAFLLTISVVNKGFNLDYFVKSRFSKIFIPYIIWTVFYLLYRAFYLHNLEDDGKLLNYFVYGKANFHLYFILTVIQFYFLFPLLQKFKKGWPIIIVYILATIANIIWIRMGPVSLGGGGVERFVNDKLFIMNWISFFMLGIVYAKFYNEIRILIFKHKAILSTIIGILFIDFLLSIDLDHLQSSITVSNMIYIPFFIVFLNYLYEHVKKNHTILKTLTLIGNYSMGIYLVHYVAIQFVKRLPIIEDIVPQSKFMGVFILTVAVSVLIVYLIGKIPYGNYIVPIPKKKATQTTDVDKKKVTQSKHTPNYNS | failed |
| MAKNDRKEPYPVINILECKACGRCLLACPKDVLFMSENLNARGYHYIEYKGEGCSGCASCYYTCPEPLALEIHIPLKKEEAE | failed |
| MFIERMTNLAQGLVVAAVHAGSIAEEMEIECGDQILAIDGQEIGDIIDFQYLTAEDEFTLLLEKAGGELWELEIERSYGEELGLEVQAVSSHGLKLCRNNCIFCFVAQMPPGMRASLYDKDDDYRLSLTQGSFITLSNLDEDEFERILKFHFSPLYISVHAWDAEARVRLMKNPRAGDLSSQLKRLAGAGIQIHSQIVLVPGYNDGEVLEQTVRELGNLHPSVQSIAVVPVGLTKHRANLPDLRPFTPEEAWSILAKGEMWQKEYRRKTGRSLVYFSDEFYASAGRDYPSIEIYDDFAQLENGVGMASKFRQEFDYALQSLPPAIPQRKVHLITGVSAAPFFEDLLKKLTPIEGLTVQRHTIINSFFGPTVTVAGLLTAQDIAGQIGNIKGEIFLIPRVMLKADEEVFLDDRSVEWLAEELQGIPLVVENQGRAFLEAVTGLDLEGEDCE | failed |
